{"source": "patent US20030100489", "test_system": "p16"}
{"substance": "CDK2", "values": [{"measurement": "RB phosphorylation by CDK2-cyclin D2 complexes", "result": "No inhibition was observed when CDK2-cyclin D2 complexes were used in a similar assay"}]}
